Measurements: patent US20240238459A1, “Granzyme-Activatable Membrane-Interacting Peptides and Methods of Use” (priority 2021, published 2024)
Ends that are not written are not given here.

Tests used:
[1] = molecular target: T1, granzyme B (Homo sapiens, UniProt P10144); test: Protease specificity of substrate sequence (FIG. 1F); assay type: biochemical; design: purchased; conditions: vs thrombin, caspase 3, caspase 8, granzyme K, MMP9, C1S; enzymes 5 nM, substrate 60 μM, 37° C., PBS, 1 mM DTT, pH 7.4
Protocol: The substrate sequence FVQWFSKFLGK (SEQ ID NO:3) was assessed for specificity for granzyme B compared to thrombin, caspase 3, caspase 8, granzyme K, MMP9, and C1S at 5 nM concentrations with substrate at 60 μM, 37° C., and buffer of PBS, 1 mM DTT, and pH 7.4.

[2] = tested on: human erythrocytes; test: Toxicity assay measuring hemolysis of human erythrocytes; conditions: in vitro, 1 hr at 37° C., hemoglobin release OD 540 nm
Protocol: Blood from healthy anonymous donors was harvested from Trima Leukoreduction chambers (Vitalant, San Francisco CA). Erythrocytes were isolated from the anonymous blood samples. Full-length GRIP B and activated GRIP B were measured for their hemolytic activity on healthy human erythrocytes in triplicate. Aliquots of human erythrocytes were suspended in PBS (pH 7.4) and incubated with serial dilutions of both peptides which were initially solubilized in DMSO. DMSO and 1% Triton X-100 were incubated in parallel as negative and positive controls, respectively. Incubation was for 1 hr at 37° C. After incubation, the samples were centrifuged for 5 min at 2,000×g upon which the supernatant was collected. Supernatant was measured for the release of hemoglobin by the erythrocytes using a BioTek H4 multimode plate reader, monitoring the optical density of the supernatant at a wavelength of 540 nm.

[3] = molecular target: T1, granzyme B; test: In vitro kinetics of quenched fluorogenic peptide proteolysis by GZMB; assay type: biochemical; conditions: Michaelis-Menten kinetics (FIG. 1D)

T1 sequence (P10144 21-247): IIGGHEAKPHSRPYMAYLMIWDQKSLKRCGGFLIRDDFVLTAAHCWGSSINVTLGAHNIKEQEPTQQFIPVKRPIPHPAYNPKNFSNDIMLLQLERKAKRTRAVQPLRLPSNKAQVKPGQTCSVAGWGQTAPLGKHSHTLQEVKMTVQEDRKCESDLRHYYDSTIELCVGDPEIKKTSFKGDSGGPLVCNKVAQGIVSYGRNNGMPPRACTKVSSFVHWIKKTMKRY

## FVQWFSKFLGK
[1]
  specificity for granzyme B compared to other proteases: highly specific for granzyme B

## FVQWFSKFLGKIEPDVSQVQDPNDQYEPF [GRIP B]
[2]
  toxicity toward human red blood cells: not to display toxicity

## IEPDVSQV (ends and bridges not checked) [NH2-K(MCA)IEPDVSQVK(DNP)-COOH]
[3]
  improved catalytic turnover compared to IEPD alone: approximately 2 fold
